Data reported in publication PMC12036459.

Assays:
[1] = target: tubulin (taxol-stabilized microtubules); experiment: single-molecule TIRF on bare microtubules; conditions: reference: E. coli tau (non-phosphorylated)
[2] = target: tau (human 2N4R) (UniProt P10636); experiment: Hill coefficient of microtubule binding curve; conditions: reference: E. coli tau (non-phosphorylated)
[3] = target: tau (human 2N4R) dGAE, 297-391 (UniProt P10636); experiment: filament co-assembly, ultracentrifugation, SDS-PAGE
[4] = target: tau (human 2N4R) (UniProt P10636); experiment: single-molecule TIRF dwell time inside envelopes; conditions: reference: E. coli SNAP-tau (non-phosphorylated); sites T181,S198,S202,S210,T231,S235,S237,S352,S396,S404,S422
[5] = sites T181,S202,S210,T231,S235,S237,S241,S258,S262,T319,T373,T377,T403,S404
[6] = sites T181,S198,S202,S210,T231,S235,S237,S352,S396,S404,S422

tau (human 2N4R), sequence (P10636 whole entry, looked up, stated change not applied): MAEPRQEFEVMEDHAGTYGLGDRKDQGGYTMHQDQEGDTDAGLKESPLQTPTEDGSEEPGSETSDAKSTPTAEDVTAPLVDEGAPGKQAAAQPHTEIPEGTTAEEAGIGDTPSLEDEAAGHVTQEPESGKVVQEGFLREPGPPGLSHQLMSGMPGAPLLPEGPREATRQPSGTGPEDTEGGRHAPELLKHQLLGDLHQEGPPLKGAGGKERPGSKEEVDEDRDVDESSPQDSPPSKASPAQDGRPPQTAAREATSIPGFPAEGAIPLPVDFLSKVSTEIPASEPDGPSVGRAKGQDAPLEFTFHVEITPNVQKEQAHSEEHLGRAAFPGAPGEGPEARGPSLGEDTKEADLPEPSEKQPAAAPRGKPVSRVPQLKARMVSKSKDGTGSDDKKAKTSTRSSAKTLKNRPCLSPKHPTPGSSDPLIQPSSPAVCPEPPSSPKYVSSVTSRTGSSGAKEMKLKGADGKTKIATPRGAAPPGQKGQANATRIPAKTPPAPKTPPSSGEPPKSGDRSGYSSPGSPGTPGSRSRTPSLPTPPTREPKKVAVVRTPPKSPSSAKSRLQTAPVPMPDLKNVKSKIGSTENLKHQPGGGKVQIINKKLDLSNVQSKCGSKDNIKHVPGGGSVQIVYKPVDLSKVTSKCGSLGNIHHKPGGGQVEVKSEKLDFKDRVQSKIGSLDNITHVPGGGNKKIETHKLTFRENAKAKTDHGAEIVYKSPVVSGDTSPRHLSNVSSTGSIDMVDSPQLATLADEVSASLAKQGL

tau (human 2N4R) (from UniProt P10636-8) HEK tau
other: dwell time [1, 5]: weaker; reference ~ 4.3
other: Hill coefficient [2, 5]: same; reference 1.24
other: t1/2 of co-pelleting ([3]; reference: E. coli tau (non-phosphorylated), sites T181,S202,S210,T231,S235,S237,S241,S258,S262,T319,T373,T377,T403,S404): same; reference ~ 14

tau (human 2N4R) (from UniProt P10636-8) Sf9 SNAP-tau
other: dwell time [4]: weaker; reference ~ 6.06

tau (human 2N4R) (from UniProt P10636-8) Sf9 tau
other: dwell time [1, 6]: weaker; reference ~ 4.3
other: Hill coefficient [2, 6]: stronger; reference 1.24
other: t1/2 of co-pelleting ([3]; reference: E. coli tau (non-phosphorylated), sites T181,S198,S202,S210,T231,S235,S237,S352,S396,S404,S422): stronger; reference ~ 14
other: t1/2 of co-pelleting ([3]; reference: HEK tau, sites S210,S422): stronger; reference ~ 12
